Tests used:
Test in all cases: BLI
[1] = biological target: recombinant SARS-CoV-2 RBD B.1.617.2/L452R, T478K (SARS-CoV-2, B.1.617.2 (Delta), RBD L452R, T478K)
[2] = biological target: recombinant SARS-CoV-2 RBD P.1/K417T, E484K, N501Y (SARS-CoV-2, P.1 (Gamma), RBD K417T, E484K, N501Y)
[3] = biological target: recombinant SARS-CoV-2 RBD B.1.1.7/N501Y (SARS-CoV-2, Alpha (B.1.1.7) RBD with N501Y)
[4] = biological target: recombinant SARS-CoV-2 RBD B.1.351/K417N, E484K, N501Y (SARS-CoV-2, B.1.351 (Beta), RBD K417N, E484K, N501Y)

NIH-CoVnb-112 (VHH)
Kd [1]: 1.66 nM
Kd [2]: 4.16 nM
Kd [3]: 3 nM
Kd [4]: 4.28 nM

Source: PMC8597880
